Data: the supplement of paper PMC7877785
± gives the uncertainty stated by the source.

Experiment: self-splicing fitness, log relative to wild type (ln ratio); higher = more splicing; Tetrahymena group I intron in knt gene, E. coli kanamycin selection, DiMSum; sequences stand for … in CUCUCU…GGAGGGAAAAGUUAUCAGGCAUGCACCUGGUAGCUAGUCUUUAAACCAAUAGAUUGCAUCGGUUUAAAAGGCAAGACCGUCAAAUUGCGGGAAAGGGGUCAACAGCCGUUCAGUACCAAGUCUCAGGGGAAACUUUGAGAUGGCCUUGCAAAGGGUAUGGUAAUAAGCUGACGGACAUGGUCCUAACCACGCAGCCAAGUCCUAAGUCAACAGAUCUUCUGUUGAUAUGGAUGCAGUUCACAGACUAAAUGUCGGUCGGGGAAGAUGUAUUCUUCUCAUAAGAUAUAGUCGGACCUCUCCUUAAUGGGAGCUAGCGGAUGAAGUGAUGCAACACUGGAGCCGCUGGGAACUAAUUUGUAUGCGAAAGUAUAUUGAUUAGUUUUGGAGUACUCGUGGUCG
Outline: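 DiMSum derived fitness as the error-weighted combination of fold changes across replicates, kanamycin versus no kanamycin, normalised to wild type. E. coli BL21(DE3) held the library, which randomised all eight P1ex-region intron nucleotides within the knt kanamycin-resistance gene on pET-22b(+). Six replicate transformations grew overnight at 37°C or 30°C on LB agar with or without 25 μg/mL kanamycin, also containing 100 μg/mL carbenicillin, 50 μM IPTG and 0.2% rhamnose, and pooled colonies were amplicon-sequenced on an Illumina HiSeq 2500.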

Row | Sequence | self-splicing fitness (ln) (30 °C) | self-splicing fitness (ln) (37 °C)
1 | UCGUAGCAAUAUUACGCAAG | -3.91 ± 0.35 | -2.12 ± 0.27
2 | CAACAGCAAUAUUACGUGGU | -4.16 ± 0.12 | -2.01 ± 0.096
3 | CAGGAGCAAUAUUACGCGUA | -2.85 ± 0.16 | -2.03 ± 0.18
4 | GAGAAGCAAUAUUACGCCAA | -0.505 ± 0.27 | -2.17 ± 0.22
5 | GGUCAGCAAUAUUACGGUGG | -4.17 ± 0.28 | -1.32 ± 0.13
6 | AUCUAGCAAUAUUACGGAAA | -2.23 ± 0.2 | -1.66 ± 0.18
7 | CCACAGCAAUAUUACGCACA | -2.44 ± 0.15 | -2.33 ± 0.25
8 | UGUCAGCAAUAUUACGGGAG | -2.78 ± 0.17 | -1.68 ± 0.14
9 | ACCAAGCAAUAUUACGUCCG | -1.19 ± 0.072 | -1.19 ± 0.11
10 | GUACAGCAAUAUUACGGUUG | -3.9 ± 0.23 | -1.86 ± 0.2
11 | GUUCAGCAAUAUUACGAACG | -2.55 ± 0.35 | -0.953 ± 0.23
12 | GUCUAGCAAUAUUACGAAAG | – | -2.42 ± 0.39
13 | UUGCAGCAAUAUUACGCCCG | -0.555 ± 0.18 | -1.07 ± 0.18
14 | GCGUAGCAAUAUUACGGUUU | -1.03 ± 0.1 | -0.436 ± 0.13
15 | GAUAAGCAAUAUUACGAGCG | -1.25 ± 0.1 | -0.755 ± 0.11
16 | CUCGAGCAAUAUUACGGGCU | -3.17 ± 0.23 | -3.24 ± 0.42
17 | AUGCAGCAAUAUUACGUUCA | -1.16 ± 0.11 | -0.74 ± 0.12
18 | UAAGAGCAAUAUUACGUUAU | -3.21 ± 0.44 | –
19 | AGGAAGCAAUAUUACGCAGG | -3.16 ± 0.25 | -2.21 ± 0.3
20 | UCAGAGCAAUAUUACGUCAG | -2.84 ± 0.3 | -2.41 ± 0.29
21 | GUGGAGCAAUAUUACGAAAU | -4.22 ± 0.36 | -2.05 ± 0.29
22 | UAAGAGCAAUAUUACGACCG | -2.9 ± 0.35 | -2.21 ± 0.25
23 | CUGAAGCAAUAUUACGAGUG | 0.0379 ± 0.053 | 0.068 ± 0.084
24 | CGUUAGCAAUAUUACGGUGC | -3.11 ± 0.23 | -2.59 ± 0.5
25 | AUCUAGCAAUAUUACGGGGU | -3 ± 0.16 | -2.98 ± 0.2
26 | ACAAAGCAAUAUUACGGACU | -0.0658 ± 0.051 | 0.338 ± 0.079

Row | Sequence | self-splicing fitness (ln) (30 °C) | self-splicing fitness (ln) (37 °C)
27 | UAUCAGCAAUAUUACGUUCG | -0.844 ± 0.085 | 0.113 ± 0.11
28 | GAGUAGCAAUAUUACGUCUU | -1.94 ± 0.16 | -1.49 ± 0.17
29 | UGCCAGCAAUAUUACGCUCC | -2.88 ± 0.12 | -1.15 ± 0.14
30 | AAAGAGCAAUAUUACGACUA | -2.38 ± 0.3 | -1.12 ± 0.25
31 | GGUAAGCAAUAUUACGGAUA | -3.17 ± 0.25 | -1.69 ± 0.13
32 | GAGAAGCAAUAUUACGGUUU | -1.07 ± 0.099 | -1.21 ± 0.14
33 | CUACAGCAAUAUUACGCCCG | 0.0629 ± 0.15 | -0.112 ± 0.14
34 | GACUAGCAAUAUUACGCCCA | -0.026 ± 0.17 | 0.443 ± 0.24
35 | CCGAAGCAAUAUUACGGGGA | -3.16 ± 0.19 | -2.96 ± 0.19
36 | CUCUAGCAAUAUUACGGCCG | -2.41 ± 0.22 | -2.2 ± 0.23
37 | GCAAAGCAAUAUUACGUCCC | -0.828 ± 0.14 | -0.697 ± 0.098
38 | CCCAAGCAAUAUUACGCUCU | -3.91 ± 0.26 | -2.16 ± 0.18
39 | GUCUAGCAAUAUUACGUCCU | -0.102 ± 0.16 | -0.136 ± 0.14
40 | UCAUAGCAAUAUUACGCCUC | -2.43 ± 0.31 | -1.04 ± 0.2
41 | UUACAGCAAUAUUACGGUCG | 0.503 ± 0.065 | 0.571 ± 0.087
42 | UACAAGCAAUAUUACGACGA | -0.323 ± 0.065 | 0.0319 ± 0.075
43 | AACGAGCAAUAUUACGCAGA | -4.04 ± 0.3 | -2.18 ± 0.23
44 | CGCGAGCAAUAUUACGUCCG | -2.81 ± 0.37 | 1.32 ± 0.29
45 | GAAAAGCAAUAUUACGUGGA | -2.96 ± 0.12 | -1.89 ± 0.12
46 | CUUUAGCAAUAUUACGAUAC | -3.4 ± 0.39 | -2.42 ± 0.45
47 | UGAAAGCAAUAUUACGUUUC | -3.14 ± 0.34 | -2.03 ± 0.28
48 | CGAAAGCAAUAUUACGAUUA | -1.48 ± 0.11 | -1.06 ± 0.13
49 | CAAUAGCAAUAUUACGUGAG | -0.424 ± 0.076 | 0.678 ± 0.11
50 | UACAAGCAAUAUUACGUGGU | -3.29 ± 0.14 | -3.27 ± 0.17
51 | AUAGAGCAAUAUUACGACAU | 0.275 ± 0.013 | 0.437 ± 0.033
52 | AUUGAGCAAUAUUACGCCCA | -2.25 ± 0.25 | -1.39 ± 0.39

Row | Sequence | self-splicing fitness (ln) (30 °C) | self-splicing fitness (ln) (37 °C)
53 | GAUAAGCAAUAUUACGCCCG | -2.05 ± 0.2 | -0.456 ± 0.24
54 | UCUCAGCAAUAUUACGCUCC | -1.02 ± 0.39 | –
55 | UUGGAGCAAUAUUACGAUAU | – | -2.49 ± 0.32
56 | GUUAAGCAAUAUUACGUUGU | -3.68 ± 0.16 | -2.28 ± 0.2
57 | GAGAAGCAAUAUUACGGUUC | -2.91 ± 0.13 | -1.5 ± 0.13
58 | UGACAGCAAUAUUACGGCUU | -0.693 ± 0.075 | -0.053 ± 0.092
59 | AGUCAGCAAUAUUACGGGUG | -1.82 ± 0.084 | -0.948 ± 0.12
60 | UCCCAGCAAUAUUACGGGGC | -2.72 ± 0.17 | -2.84 ± 0.22
61 | CUUAAGCAAUAUUACGCCUA | -1.91 ± 0.38 | –
62 | GUGAAGCAAUAUUACGAAGG | -1.91 ± 0.14 | -0.854 ± 0.17
63 | UUAAAGCAAUAUUACGAUAG | -0.00915 ± 0.088 | -0.00163 ± 0.12
64 | GACCAGCAAUAUUACGGGCA | -0.306 ± 0.078 | 0.16 ± 0.096
65 | GAUUAGCAAUAUUACGACGC | 0.277 ± 0.14 | 0.361 ± 0.14
66 | ACAGAGCAAUAUUACGGAUA | -3.19 ± 0.45 | –
67 | AUGCAGCAAUAUUACGACCU | 0.132 ± 0.082 | 0.168 ± 0.087
68 | UCCUAGCAAUAUUACGAAUC | – | -2.17 ± 0.29
69 | UUCCAGCAAUAUUACGUGGA | -3.28 ± 0.24 | -2.95 ± 0.26
70 | ACUAAGCAAUAUUACGCGUU | -3.36 ± 0.13 | -1.58 ± 0.11
71 | GCUAAGCAAUAUUACGAGCA | -1.72 ± 0.14 | -1.03 ± 0.13
72 | ACGCAGCAAUAUUACGCCAC | – | -3.22 ± 0.37
73 | UCAAAGCAAUAUUACGAUAA | -1.43 ± 0.11 | -0.335 ± 0.13
74 | ACAAAGCAAUAUUACGUUUU | -3.53 ± 0.14 | -2.95 ± 0.16
75 | UCCUAGCAAUAUUACGCUGG | -3.84 ± 0.42 | -2.29 ± 0.32
76 | UGACAGCAAUAUUACGAUUA | -0.338 ± 0.059 | 0.419 ± 0.066
77 | CCUCAGCAAUAUUACGCUAG | -4.45 ± 0.38 | -1.04 ± 0.22
